Experimental data reported in patent US20230302100A1 (published 2023).

What was measured:
[1] = target: rabbit anti-BSA (ACRIS, #R1048P); test: cell-based or functional assay
[2] = target: denosumab (XGEVA); test: cell-based or functional assay

B1: pCART197 (enzyme)
chain: MDDYQRNATEAYAKEVPHQITSVWTKGVTPLTPEQFRYNNEDVIHAPYLANQGWYDITKAFDGKDNLLCGAATAGNMLHWWFDQNKTEIEAYLSKHPEKQKIIFRNQELFDLKEAIRTKDSQTNSQLFEYFRDKAFPYLSARQLGVMPDLVLDMFINGYYLNVFKTQSTDVKRPYQDKDKRGGIFDAVFTRGNQTTLLTARHDLKNKGLNDISTIIKEELTKGRALALSHTYANVSISHVINLWGADFNAEGNLEAIYVTDSDANASIGMKKYFVGINKHGHVAISAKKIEGENIGAQVLGLFTLSSGKDIWQKLNGGGHHHHHH
- pCART124 ratio (fold change in potency relative to IdeS), ELISA-based potency assay [1]: 8 fold over pCART124

B2: pCART203 (enzyme)
chain: MDDYQRNATEAYAKEVPHQITSVWTKGVTPPEQFTQGEDVIHAPYLAHQGWYDITKAFDGKDNLLCGAATAGNMLHWWFDQNKTEIEAYLSKHPEKQKIIFNNQELFDLKAAIDTKDSQTNSQLFNYFRDKAFPNLSARQLGVMPDLVLDMFINGYYLNVFKTQSTDVNRPYQDKDKRGGIFDAVFTRGDQTTLLTARHDLKNKGLNDISTIIKQELTEGRALALSHTYANVSISHVINLWGADFNAEGNLEAIYVTDSDANASIGMKKYFVGINAHGHVAISAKKIEGENIGAQVLGLFTLSSGKDIWQKLSGGGHHHHHH
- pCART124 ratio (fold change in potency relative to IdeS), ELISA-based potency assay [1]: ~3.5 fold over IdeS
- IgG2 (denosumab) cleavage, SDS-PAGE titration: fold efficacy over IdeZ [2]: ~3 fold vs pCART144

B3: pCART201 (enzyme)
chain: MSVWTKGVTPLTPEQFRYNNEDVIHAPYLAHQGWYDITKAFDGKDNLLCGAATAGNMLHWWFDQNKTEIEAYLSKHPEKQKIIFNNQELFDLKAAIDTKDSQTNSQLFNYFRDKAFPNLSARQLGVMPDLVLDMFINGYYLNVFKTQSTDVNRPYQDKDKRGGIFDAVFTRGDQTTLLTARHDLKNKGLNDISTIIKQELTEGRALALSHTYANVSISHVINLWGADFNAEGNLEAIYVTDSDANASIGMKKYFVGINAHGHVAISAKKIEGENIGAQVLGLFTLSSGKDIWQKLSGGGHHHHHH
- pCART124 ratio (fold change in potency relative to IdeS), ELISA-based potency assay [1]: 8 fold over pCART124
